Results on seven molecules are retold here after PMC3605642 (The Journal of Biological Chemistry, 2013).

Sequences and labels used below:
B1: RIAM(1–127) (TBS1-TBS2) (domain or fragment)
chain: MGESNEDIDQMFSTLLGEMDLLTQSLGVDTLPPPDPNPPREEFNYTVGFKDLNESLNALEDQDLDALMADLVADISEAEQRTIQAQKESSQNQDRFALLRASDGQGTASGGYGASAAAIDVSHHEEA
B2: talin R3 rod domain (residues 787–911) (domain or fragment, mouse, UniProt P26039 787-911, looked up)
chain: AHATGAGPAGRYDQATDTILTVTENIFSSMGDAGEMVRQARILAQATSDLVNAIKADAEGESDLENSRKLLSAAKILADATAKMVEAAKGAAAHPDSEEQQQRLREAAEGLRMATNAAAQNAIKK
B3: talin R3 IVVI mutant (T809I/T833V/T867V/T901I) (domain or fragment, mouse, UniProt P26039 787-911, looked up)
chain: B2 chain with T23I, T47V, T81V, T115I

In assay [1] the target is vinculin domain 1 (Vd1; residues 1–258) (chicken) (UniProt P12003). Put plainly: SEC-MALS.
In assay [2] the target is B2. Put plainly: NMR titration.
Assay [3] deals with B3. Nature of the assay: NMR titration.
The target in assay [4] is talin R2R3 double domain fragment (mouse). Put plainly: ITC.
The target is the same in assay [5]. Nature of the assay: SEC-MALS.
For assay [6], the target named is T1, vinculin domain 1 (Vd1; residues 1–258) (chicken, UniProt P12003 1-258).
T1 sequence (looked up): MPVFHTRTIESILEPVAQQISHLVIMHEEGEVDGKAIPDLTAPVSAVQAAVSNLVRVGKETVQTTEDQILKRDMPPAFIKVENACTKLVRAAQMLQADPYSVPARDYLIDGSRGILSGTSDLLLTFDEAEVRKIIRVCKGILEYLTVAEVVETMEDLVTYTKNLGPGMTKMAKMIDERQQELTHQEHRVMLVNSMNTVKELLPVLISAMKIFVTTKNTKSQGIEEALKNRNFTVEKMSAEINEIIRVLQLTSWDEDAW
Nature of the assay: SEC.

For assay [7], the target named is T1, vinculin domain 1 (Vd1; residues 1–258). Nature of the assay: SEC. The source holds these as a separate data set. (In general: In gel filtration, larger molecules generally elute earlier.)
For assay [8] the target is unchanged. Nature of the assay: ITC. On the technique in general: In ITC the heat of successive injections is recorded.
In assay [9] the target is B2. Nature of the assay: ITC.

Substitutions are numbered along the chain they refer to. Names may count otherwise. Where two headings read alike, the source gives them in different places.

talin R2R3 double domain fragment (mouse), sequence (P26039 whole entry, the tested form may be a part): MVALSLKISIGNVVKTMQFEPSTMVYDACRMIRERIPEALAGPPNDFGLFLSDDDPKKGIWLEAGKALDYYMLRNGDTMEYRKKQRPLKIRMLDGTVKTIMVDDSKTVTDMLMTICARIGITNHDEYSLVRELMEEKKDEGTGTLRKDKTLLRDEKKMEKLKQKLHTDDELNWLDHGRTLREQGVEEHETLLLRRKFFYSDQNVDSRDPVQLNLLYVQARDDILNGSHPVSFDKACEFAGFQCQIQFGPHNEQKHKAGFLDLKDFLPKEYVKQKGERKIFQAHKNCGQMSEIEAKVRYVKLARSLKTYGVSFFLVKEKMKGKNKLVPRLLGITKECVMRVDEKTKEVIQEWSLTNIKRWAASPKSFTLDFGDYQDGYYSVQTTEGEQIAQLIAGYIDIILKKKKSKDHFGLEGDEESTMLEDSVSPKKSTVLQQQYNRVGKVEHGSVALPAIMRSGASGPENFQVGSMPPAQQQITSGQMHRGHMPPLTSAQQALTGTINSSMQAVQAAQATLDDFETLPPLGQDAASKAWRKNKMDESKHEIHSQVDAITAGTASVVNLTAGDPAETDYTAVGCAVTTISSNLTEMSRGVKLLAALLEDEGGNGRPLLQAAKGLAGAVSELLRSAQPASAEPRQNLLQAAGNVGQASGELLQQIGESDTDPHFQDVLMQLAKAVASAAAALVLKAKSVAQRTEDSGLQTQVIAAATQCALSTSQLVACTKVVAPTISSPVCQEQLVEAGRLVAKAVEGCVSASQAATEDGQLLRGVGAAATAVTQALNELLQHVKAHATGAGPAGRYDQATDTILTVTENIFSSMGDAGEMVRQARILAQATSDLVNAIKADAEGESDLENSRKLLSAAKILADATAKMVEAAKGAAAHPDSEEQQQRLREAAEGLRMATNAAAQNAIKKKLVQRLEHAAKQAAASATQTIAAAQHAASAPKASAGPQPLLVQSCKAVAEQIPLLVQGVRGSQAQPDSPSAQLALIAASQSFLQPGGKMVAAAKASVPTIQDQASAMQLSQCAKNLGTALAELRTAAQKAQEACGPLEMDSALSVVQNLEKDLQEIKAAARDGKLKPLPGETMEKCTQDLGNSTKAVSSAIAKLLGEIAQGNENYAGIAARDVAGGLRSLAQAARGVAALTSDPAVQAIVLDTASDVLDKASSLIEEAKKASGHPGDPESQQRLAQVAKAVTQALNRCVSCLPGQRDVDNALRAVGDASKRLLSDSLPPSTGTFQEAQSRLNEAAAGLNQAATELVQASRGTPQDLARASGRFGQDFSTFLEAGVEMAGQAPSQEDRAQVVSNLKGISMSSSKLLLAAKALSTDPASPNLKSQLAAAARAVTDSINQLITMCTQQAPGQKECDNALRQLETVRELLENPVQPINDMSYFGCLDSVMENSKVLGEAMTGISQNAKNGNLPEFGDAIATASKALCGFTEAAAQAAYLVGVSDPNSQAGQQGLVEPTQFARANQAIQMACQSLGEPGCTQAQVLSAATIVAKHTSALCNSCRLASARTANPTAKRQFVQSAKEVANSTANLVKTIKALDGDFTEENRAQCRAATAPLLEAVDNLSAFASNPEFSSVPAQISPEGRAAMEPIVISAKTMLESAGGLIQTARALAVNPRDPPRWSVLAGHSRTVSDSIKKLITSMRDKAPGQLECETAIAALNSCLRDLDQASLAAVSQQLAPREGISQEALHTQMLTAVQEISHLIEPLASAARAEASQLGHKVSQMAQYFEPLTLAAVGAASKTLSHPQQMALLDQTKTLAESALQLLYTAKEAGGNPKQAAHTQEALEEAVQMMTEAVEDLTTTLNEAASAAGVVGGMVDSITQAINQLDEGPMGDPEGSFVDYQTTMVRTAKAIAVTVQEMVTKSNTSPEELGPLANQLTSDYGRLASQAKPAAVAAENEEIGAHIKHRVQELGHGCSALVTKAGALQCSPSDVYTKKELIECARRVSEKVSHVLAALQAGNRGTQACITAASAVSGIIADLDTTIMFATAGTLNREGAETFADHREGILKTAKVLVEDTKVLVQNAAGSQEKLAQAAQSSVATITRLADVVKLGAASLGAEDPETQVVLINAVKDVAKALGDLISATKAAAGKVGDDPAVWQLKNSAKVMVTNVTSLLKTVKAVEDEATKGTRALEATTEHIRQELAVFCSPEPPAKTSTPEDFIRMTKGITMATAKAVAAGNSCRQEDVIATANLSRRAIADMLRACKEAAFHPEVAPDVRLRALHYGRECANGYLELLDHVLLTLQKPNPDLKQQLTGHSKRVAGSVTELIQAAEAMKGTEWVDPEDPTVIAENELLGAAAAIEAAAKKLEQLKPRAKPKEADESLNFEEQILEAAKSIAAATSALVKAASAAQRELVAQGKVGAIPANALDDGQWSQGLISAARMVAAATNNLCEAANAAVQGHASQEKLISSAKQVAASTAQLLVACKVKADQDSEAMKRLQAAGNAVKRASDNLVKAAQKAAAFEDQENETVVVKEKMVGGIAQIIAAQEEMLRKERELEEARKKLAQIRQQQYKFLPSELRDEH

As for “talin R2R3 double domain fragment (domain or fragment)”, the stoichiometry N in assay [1] stood at 4 Vd1 per R2R3.

With EDIDQMFSTLLGEMDLLTQSLGVDT [RIAM wild type peptide (6-30), TBS1], the binding result in [2] and in [3] was “binds” in each case. For B1, the Kd in assay [4] was 2 µM. This molecule also yielded a stoichiometry N in assay [5] of 1. For B2, the binding result in assay [6] is “binds”. For B3, the binding result in [7] is given as “binds”. Take GEMVRQARILAQATSDLVNAIKADA (peptide, UniProt P26039 820-844, looked up) [talin VBS (residues 820–844) in talin R3]: in assay [8], the Kd is 0.8 µM and the dH was -5.9 kcal. On to MGESNEDIDQMFSTLLGEMDLLTQSLGVDTLP (peptide, UniProt Q8R5A3 1-32, looked up) [RIAM(1–32) (TBS1)], for which the dH in assay [8] is -1.5 kcal. This molecule also displayed a Kd in assay [9] of 36 µM.

For orientation: stoichiometry N means the number of molecules, sites or subunits per partner or assembly. In general, Kd refers to the constant that tells how readily two partners part at equilibrium. Higher therefore signals weaker binding.
